Biological target: T1, SbDOF21 (Sorghum bicolor cv. BTx623, UniProt C5Y2M8 1-340)
T1 sequence: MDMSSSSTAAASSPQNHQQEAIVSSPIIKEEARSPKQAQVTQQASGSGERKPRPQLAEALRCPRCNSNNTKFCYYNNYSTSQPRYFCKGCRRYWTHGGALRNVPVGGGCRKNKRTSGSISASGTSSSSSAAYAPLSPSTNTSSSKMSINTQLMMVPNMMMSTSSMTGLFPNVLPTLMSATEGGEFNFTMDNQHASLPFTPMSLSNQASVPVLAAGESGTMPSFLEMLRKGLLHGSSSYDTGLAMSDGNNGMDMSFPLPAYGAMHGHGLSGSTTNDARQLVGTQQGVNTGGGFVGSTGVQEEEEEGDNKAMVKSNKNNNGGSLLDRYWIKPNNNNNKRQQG
Assay: EMSA; 20-fold unlabeled probe partly reduced the shift; Chemiluminescent EMSA Kit (Beyotime) per instructions; buffer, salt, pH and temperature not stated
Settings: protein: recombinant; tags: His (pET32a, N-terminal vector fusion); blunt

B1: 4x P-Box (dsDNA)
DNA 1: TGTAAAGTGTAAAGTGTAAAGTGTAAAG
DNA 2: CTTTACACTTTACACTTTACACTTTACA
  binding result: binds

Reference: PMC9603474, “Genome-Wide Identification of DOF Gene Family and the Mechanism Dissection of SbDof21 Regulating Starch Biosynthesis in Sorghum”
